The values below come from the supplement of paper PMC12042874.

± gives the uncertainty stated by the source.

The series is described as follows: amyloid nucleation score (Sup35N fusion, yeast selection) (log enrichment); library NNK2; higher = more nucleation; inactive = no reads after selection. An outline of the steps: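 Yeast lacking psi expressed peptides of 20 random codons fused to Sup35N, received 100 μM copper sulfate for 24 hours, and were then grown for 7 days at 30°C on medium lacking adenine and uracil. Illumina sequencing of input and output plasmid inserts provided the reads. Nucleation scores are DiMSum log enrichments of output over input, centred on the mode of non-aggregating sequences. Any sequence with under 100 input reads was excluded.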
Regarding TADISLYLRHST, the amyloid nucleation score was 6.442 ± 0.049.

In the case of TWTRLALFMLIPSG, the amyloid nucleation score was 0.464 ± 0.35.

Take GPWGGWSVT: the amyloid nucleation score entry was “inactive”.

The substance VSTIIWCIR came in with an amyloid nucleation score of 5.143 ± 0.047.

The substance CIQIAIYGWFTDTTIRG had an amyloid nucleation score of 6.48 ± 0.03.

SRSCVKH: the amyloid nucleation score is -1.27 ± 0.55.

EGVVSVRVFKYTGSYG returned an amyloid nucleation score of 0.599 ± 0.8.

GLYIEKARQRYPRSQHLIAM yielded an amyloid nucleation score of -0.419 ± 0.49.

For the substance RGRLMCSYLILNFCRSG, the amyloid nucleation score stood at 3.04 ± 0.12.

In turn, GSLHVNGVVHVSDCHVTY gave an amyloid nucleation score of 1.34 ± 0.53.

In turn, IDCSFSFFVSPFRHPHSQED gave an amyloid nucleation score of 4.87 ± 0.092.

In the case of PCNTVLASPRYHVGGIYNLK, the amyloid nucleation score was -0.727 ± 0.78.

Substance VVMHQSAVCYEHEMTLVRRF came in with an amyloid nucleation score of 0.027 ± 1.

With RTLPFWWLNLFWFLNNMDTF, the amyloid nucleation score was -1.8 ± 1.1.

With LSQVSRFLSSTNLT, the amyloid nucleation score was 0.579 ± 0.47.

As to IYRWPFVHPYMPLTRVAPDS, the amyloid nucleation score result is “inactive”.

In turn, NAVFVFSRWWYISNVVPQK displayed an amyloid nucleation score of -1.48 ± 1.1.

EFRGWNI displayed an amyloid nucleation score of -0.587 ± 0.79.

The substance APTCSKCCIFMQC registered an amyloid nucleation score of 5.99 ± 0.072.

IINSDLMCLVNLFVNDSMRG: the amyloid nucleation score is 8.093 ± 0.059.

For TLTNHWLRSLCITSKGTLSC, the amyloid nucleation score entry was “inactive”.

Regarding WPYRMMR, the amyloid nucleation score was 0.554 ± 0.74.

With YPGWPMKTVQ, the amyloid nucleation score was 3.97 ± 0.05.

In turn, FYSLQFLTILLVTFMEATYP returned an amyloid nucleation score of -0.165 ± 0.27.

As to SLQSSYEYINPRSLLHCSHL, the amyloid nucleation score is -1.44 ± 0.49.

Regarding KFKDHVGLYKPMGSRKFLDW, the amyloid nucleation score is -0.28 ± 0.28.

For the substance FFSFGCGSWRTVIVTSRSL, the amyloid nucleation score was -0.299 ± 1.

YYKKTVVPYRLYAGLELIAT gave an amyloid nucleation score of -0.607 ± 0.48.

For the substance GSLMRTFHILSIAHSTSWCM, the amyloid nucleation score stood at 0.381 ± 0.19.

Regarding GSLYVLAMLSGYVAKPYKIY, the amyloid nucleation score was -0.072 ± 0.79.

DISWYCGDHGSVVVECRNDL came in with an amyloid nucleation score of 2.63 ± 0.069.

Regarding EYMYYGFYCHYGSSVLAF, the amyloid nucleation score was -0.731 ± 0.56.

In turn, KTSWVVYDGFRARDARSWRS registered an amyloid nucleation score of -0.245 ± 0.48.

Consider IGLDRWLMSLRRYAMHK, for which the amyloid nucleation score was -0.089 ± 0.18.

For the substance GELDGNRERILRRRGTMDYQ, the amyloid nucleation score worked out at 2.56 ± 0.091.

Substance MACKGLSLCFVWVLENKRRS registered an amyloid nucleation score of 0.454 ± 0.23.

Take ILGISCVFY: the amyloid nucleation score is 7.227 ± 0.072.

FCAQITPHRISWLWWQINRQ registered an amyloid nucleation score of -0.304 ± 1.1.

As for GQLSFCGVVYDISRQEPTIF, the amyloid nucleation score result is “inactive”.

On to VWWFIYVLGVVSTDAKVSPS, for which the amyloid nucleation score entry is “inactive”.

The substance ASDPIMTVSRPIPMHPLY came in with an amyloid nucleation score of -0.172 ± 0.76.

In turn, IYFGMDASKIGLLYVVGYSG had an amyloid nucleation score of 0.067 ± 0.63.

Turning to SSMGIVGPYGWFSTSMVNIV, the amyloid nucleation score came to 0.895 ± 0.28.

With VPICLSS, the amyloid nucleation score entry is “inactive”.

Take NMDYDIKEQFLSRVPSPRES: the amyloid nucleation score is -0.95 ± 0.78.

PRRSNTCWNSCISEMIGIRS: the amyloid nucleation score amounted to 0.664 ± 0.51.

On to GILGQGDYYLRN, for which the amyloid nucleation score was -0.422 ± 1.

In turn, KVIMVLFRFDMSIWGWQTDI yielded an amyloid nucleation score of -0.628 ± 0.76.

In turn, ILSNMGSMVFTLCNRDSMLR displayed an amyloid nucleation score of -0.523 ± 1.

For the substance VKFCIMSGSTKTINNYSQAR, the amyloid nucleation score worked out at 5.57 ± 0.09.

Consider VTSLHSYSMMFPPMWMSNQS, for which the amyloid nucleation score is 1.54 ± 0.32.

Substance LPCFL displayed an amyloid nucleation score of 1.93 ± 0.1.

Regarding TLMYSQSAIDWTMSSPGRCR, the amyloid nucleation score was determined as 1.49 ± 0.36.

In turn, SGQYKENYGGFHHMLVRWRC returned an amyloid nucleation score of -0.042 ± 0.27.

As to LCLIGRYRMSERALRLRWLV, the amyloid nucleation score came to 2.54 ± 0.11.

Substance SSWLEVAMTALRSIWYMD displayed an amyloid nucleation score of 0.103 ± 0.26.

Substance SRLMVGGQSLVSW yielded an amyloid nucleation score of 5.716 ± 0.042.

With TLTRGSISSIVDASWNMEKT, the amyloid nucleation score was -0.061 ± 0.46.

Substance WLMGVRG had an amyloid nucleation score of -1.01 ± 0.64.

The substance IRWAQTFILLFVCSSARPTQ had an amyloid nucleation score of 0.712 ± 0.36.

The substance LGHHIVFAVTPKWTYDDDIK registered an amyloid nucleation score of 0.679 ± 0.62.

In turn, LCYPCRACPGTKNALADRLG had an amyloid nucleation score of 3.56 ± 0.087.

Regarding MYILMKDIRDFIFSSRPIIS, the amyloid nucleation score entry is “inactive”.

In turn, ADSVLYNCVCRFSSVPQVLR gave an amyloid nucleation score of -0.263 ± 0.31.

In turn, LMLAYRLIFDDNRTGLSSAS had an amyloid nucleation score of 0.211 ± 0.5.

As to NNLPTQIYYVLNSPSEVRLN, the amyloid nucleation score was found to be 0.579 ± 0.31.

Take CMFGEEFGLNKNVVGSLGLY: the amyloid nucleation score result was “inactive”.

EVGVEGEIF displayed an amyloid nucleation score of -0.56 ± 0.4.

VWPLCGCAWRWSGKWGGTRW registered an amyloid nucleation score of 6.41 ± 0.077.

In turn, TFSVQAVNLFSIWVLSGPGD gave an amyloid nucleation score of 8.02 ± 0.034.

With CPLEAYLD, the amyloid nucleation score result was “inactive”.

In turn, SCDIRRSLVSRAQICVCIVM came in with an amyloid nucleation score of 7.534 ± 0.071.

As to DEGSNIGHGSLDIHRDCALL, the amyloid nucleation score was -0.264 ± 0.23.

Substance DVVFFVSYW showed an amyloid nucleation score of 3.86 ± 0.098.

SHMSHYRNSSTDFAA: the amyloid nucleation score was -0.745 ± 0.42.

On to EGFMSFPTN, for which the amyloid nucleation score entry was “inactive”.

PDFSDFITHLIGFRSMGTGG registered an amyloid nucleation score of -0.694 ± 1.1.

Turning to MRWIFGHAGPSFSCILKKRP, the amyloid nucleation score entry was “inactive”.

Substance ITLGLQLCGFNCMTGLVRWS yielded an amyloid nucleation score of -0.079 ± 0.76.

In the case of WRPLWSRAIFGS, the amyloid nucleation score result was “inactive”.

As to LSFSNPWFMIKSRDMFVCIG, the amyloid nucleation score came to 0.792 ± 0.8.

Substance GLDPRCNNTPVTLYVLSPWV registered an amyloid nucleation score of -0.588 ± 1.1.

Take FIDTLNYDWDIVLFWFLGEN: the amyloid nucleation score turned out to be 0.021 ± 0.51.

The substance WLFDGGFSVKWPDRVSLARV displayed an amyloid nucleation score of -1.14 ± 1.

The substance ILIWVVNLYAYVNYFM showed an amyloid nucleation score of 3.1 ± 0.062.

For the substance IWRFRGRRNRAWKF, the amyloid nucleation score was -0.333 ± 0.62.

On to GVWICFRSAMNSIKACFNNR, for which the amyloid nucleation score was determined as 5.395 ± 0.04.

Regarding RRFCSCQLSKPLIFPMVLYW, the amyloid nucleation score is -0.454 ± 0.53.

As for GHFRFEHCVSVSLSSIFSNE, the amyloid nucleation score came to 1.55 ± 0.11.

VLWHTGDMDMRVNRANELVS: the amyloid nucleation score amounted to 4.52 ± 0.046.

Consider LCPYYNLWS, for which the amyloid nucleation score entry is “inactive”.

For CLLVEHNMLWWWSCCIGCWK, the amyloid nucleation score was 0.635 ± 0.37.

FDYVLSGICIPLKSIGVSFG gave an amyloid nucleation score of 8.385 ± 0.053.

As for ILSPTSL, the amyloid nucleation score stood at 1.26 ± 0.52.

On to ALMNPHFFSWCLKMVGYGYR, for which the amyloid nucleation score result was “inactive”.

Take FQFRCCTM: the amyloid nucleation score stood at 9.232 ± 0.024.

VVVIGNFVSPRDIRFISMYT came in with an amyloid nucleation score of 8.118 ± 0.047.

With TVSRLYEYWLLRMCIY, the amyloid nucleation score is -0.413 ± 1.

In turn, VVRGRSGLCNMFWCDRQRRL yielded an amyloid nucleation score of -0.63 ± 0.34.

VPSFYYRIVTYKRAE showed an amyloid nucleation score of 2.74 ± 0.094.

Take KTGVGTYIPQWDCNGHEMVS: the amyloid nucleation score came out at 0.423 ± 0.35.

For VLVIGSIVYVCLSKDCCFNV, the amyloid nucleation score was 9.543 ± 0.04.

In turn, VLVCSANRLCNEPTIDRVLG gave an amyloid nucleation score of 4.14 ± 0.057.

GKFCIFASMADLMEW came in with an amyloid nucleation score of -0.491 ± 0.42.

Take TIKTALMYIMRYSFRSYRDF: the amyloid nucleation score is -1.02 ± 0.61.

PYLPLRYFCWGSK showed an amyloid nucleation score of -0.249 ± 0.79.

WAVSATWWNFLSVYRKLSDL: the amyloid nucleation score was -0.095 ± 1.1.

In turn, SFGTFSCLYSVYNI came in with an amyloid nucleation score of 2.84 ± 0.086.

In turn, SSTSLLNLPCWDRIFHTVRL showed an amyloid nucleation score of -0.429 ± 0.42.

For FSRYNVCYFRVAKGNARLPF, the amyloid nucleation score is -0.541 ± 0.76.

Regarding KFSLDF, the amyloid nucleation score was -0.837 ± 0.53.

Regarding VQKTIVKLLAWLCFRGTAYC, the amyloid nucleation score was found to be 0.486 ± 0.8.

With NNPWFCGGSLWLYGSQYSPS, the amyloid nucleation score amounted to 3.23 ± 0.078.

RNLTFYKTSPVGRC yielded an amyloid nucleation score of 0.712 ± 0.4.

Substance VLWMVQMIRPRSS had an amyloid nucleation score of 7.02 ± 0.074.

FFNAR displayed an amyloid nucleation score of -0.951 ± 0.62.

Regarding VIPYISYLDIGTLVLLAFID, the amyloid nucleation score is -0.373 ± 1.

LDDVNMWFHIGNGRGGGELW had an amyloid nucleation score of 0.092 ± 1.1.

KHCQLLSVSAECDRPGLWKE displayed an amyloid nucleation score of 0.75 ± 0.17.

Turning to WTGHMPMSLVHLMIGWHGHY, the amyloid nucleation score was 0.637 ± 0.62.

Turning to VLAYMQHFYRCQLCSVYVWG, the amyloid nucleation score is 4.23 ± 0.11.

As for GSPAVGEGG, the amyloid nucleation score turned out to be 0.697 ± 0.81.

On to WAFNPTELLVDAQKSRGRIW, for which the amyloid nucleation score result was “inactive”.

RKCLGLRSYATTFRVDQHSC showed an amyloid nucleation score of 0.266 ± 0.3.

In the case of KSCGNGHISDVIYLRGMLGV, the amyloid nucleation score was -0.538 ± 0.55.

The substance CTIKIGWYWL registered an amyloid nucleation score of 7.512 ± 0.07.

Consider SYLKETMTGLLPLG, for which the amyloid nucleation score entry was “inactive”.

With LQCGRIV, the amyloid nucleation score was -0.204 ± 0.79.

QSRSYFRRGVTSCLHPGWET displayed an amyloid nucleation score of 0.452 ± 0.53.

Substance SVQVMCQSWPLSPLFAPRHR gave an amyloid nucleation score of 5.92 ± 0.039.

Take LFYGLGLICFLISFPIELNH: the amyloid nucleation score result is “inactive”.

In the case of WCMLRYCVESGLSVSFMHFS, the amyloid nucleation score is -0.626 ± 0.63.

As to RRVTRKVVGPRNYAYEKYFW, the amyloid nucleation score came out at 3.28 ± 0.06.

Turning to VTNVCGWRTEGWYDPGSAKT, the amyloid nucleation score was 1.13 ± 0.33.

Turning to RLHKTSNITTWIAHPLHNR, the amyloid nucleation score is -0.038 ± 0.65.

Regarding FRAFLQITLILNCGSSASDV, the amyloid nucleation score turned out to be 3.45 ± 0.11.

Regarding YFTNFWLLCLLSG, the amyloid nucleation score is 4.34 ± 0.079.

As to ALNYVSCWNALRKFRESVAH, the amyloid nucleation score result is “inactive”.
